Reference: publication PMC4513882

Target: SAMHD1 wt (human) (UniProt Q9Y3Z3)
Experiment: AFM

SAMHD1 wt (human), sequence (Q9Y3Z3 whole entry): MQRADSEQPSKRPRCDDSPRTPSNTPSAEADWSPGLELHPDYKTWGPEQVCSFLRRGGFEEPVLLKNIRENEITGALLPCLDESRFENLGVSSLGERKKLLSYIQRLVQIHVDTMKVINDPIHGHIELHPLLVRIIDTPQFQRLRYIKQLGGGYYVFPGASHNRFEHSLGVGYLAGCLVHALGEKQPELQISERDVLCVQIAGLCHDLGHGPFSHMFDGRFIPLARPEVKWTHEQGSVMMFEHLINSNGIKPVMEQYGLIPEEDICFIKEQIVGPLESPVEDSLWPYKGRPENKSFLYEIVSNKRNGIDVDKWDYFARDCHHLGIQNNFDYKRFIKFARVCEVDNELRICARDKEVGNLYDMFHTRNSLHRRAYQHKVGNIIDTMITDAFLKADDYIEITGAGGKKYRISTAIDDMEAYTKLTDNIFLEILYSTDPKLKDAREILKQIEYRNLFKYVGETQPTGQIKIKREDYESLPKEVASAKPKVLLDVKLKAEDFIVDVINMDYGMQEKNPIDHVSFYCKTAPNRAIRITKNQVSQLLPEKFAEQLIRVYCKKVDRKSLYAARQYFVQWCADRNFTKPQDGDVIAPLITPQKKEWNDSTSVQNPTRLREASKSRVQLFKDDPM

| Substance | binding signal (% ssDNA ends bound) | binding signal (% ssRNA ends bound) |
| --- | --- | --- |
| AFM DNA, 295 bp duplex with 60 nt ssDNA overhang | 26 |  |
| GGUUAUUCUCUUAUUUAUUCUAUCUAUCUCUCUCUUCUCUAUUUCCUCACAUCCUCUCUCACUCUCUAUCUCUAUCUCCUCUCUCUUCUCUCUCUCUCUCUCUCCUCUCUAUAUUCUUCUCUCUUCUCUCCUCUCCUCUCUCUCUCUCUUUAUUCUUCCACUUUUUUCCUUCUCACUUCUCUUCUUCUUUAUUCUUCUCAUCUCAUCUCAUCUCAUCUCAUCUCAUCUCAUCUCAUCUCAUCUCAUCUCAUCUCAUCUCAUCUCAUCUCAUCUCAUCUCAUCUCAUCUCAUCUCAUCUCAUCUCAGG / TGAGAAGAATAAAGAAGAAGAGAAGTGAGAAGGAAAAAAGTGGAAGAATAAAGAGAGAGAGAGAGGAGAGGAGAGAAGAGAGAAGAATATAGAGAGGAGAGAGAGAGAGAGAGAAGAGAGAGGAGATAGAGATAGAGAGTGAGAGAGGATGTGAGGAAATAGAGAAGAGAGAGATAGATAGAATAAATAAGAGAATAACC [AFM RNA, 200 bp RNA:DNA duplex with 102 nt ssRNA overhang] |  | 84 |
